Source: the supplement of paper PMC9112550, “Optimization of the antimicrobial peptide Bac7 by deep mutational scanning” (BMC Biology, 2022)

System: Escherichia coli TOP10
Experiment: shrunken log2 fold change of peptide-encoding DNA abundance (4.5 h post-induction vs induction); higher = less antimicrobial activity (less host growth inhibition)
Conditions: time post-induction: 4.5 h; library: site-saturation at positions 5, 18, 19, 20
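Also: peptides expressed intracellularly from a pBAD plasmid library in pooled LB shake-flask culture, induced with 0.3% L-arabinose, DNA abundance read by NGS, three biological replicates, DESeq2 with apeglm shrinkage.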

In order of rising “shrunken log2 fold change” value:
1. RRIRCRPPRLPRPRPRPYIDPRP  -1.39
2. RRIRCRPPRLPRPRPRPYQMPRP  -1.3
3. RRIRCRPPRLPRPRPRPYLHPRP  -1.18
4. RRIRCRPPRLPRPRPRPWIKPRP  -1.1
5. RRIRCRPPRLPRPRPRPYWDPRP  -1.1
6. RRIRCRPPRLPRPRPRPYFNPRP  -1.04
7. RRIRCRPPRLPRPRPRPYLYPRP  -1.01
8. RRIRCRPPRLPRPRPRPYCPPRP  -0.968
9. RRIRCRPPRLPRPRPRPYDPPRP  -0.914
10. RRIRCRPPRLPRPRPRPYVAPRP  -0.858
11. RRIRCRPPRLPRPRPRPYQIPRP  -0.852
12. RRIRCRPPRLPRPRPRPYSTPRP  -0.818
13. RRIRCRPPRLPRPRPRPVYQPRP  -0.783
14. RRIRCRPPRLPRPRPRPYCFPRP  -0.783
15. RRIRDRPPRLPRPRPRPCNKPRP  -0.764
16. RRIRCRPPRLPRPRPRPWLNPRP  -0.752
17. RRIRCRPPRLPRPRPRPYKPPRP  -0.705
18. RRIRCRPPRLPRPRPRPYWLPRP  -0.669
19. RRIRCRPPRLPRPRPRPYKWPRP  -0.636
20. RRIRCRPPRLPRPRPRPWMHPRP  -0.621
21. RRIRCRPPRLPRPRPRPYSHPRP  -0.595
22. RRIRCRPPRLPRPRPRPYTGPRP  -0.554
23. RRIRCRPPRLPRPRPRPWYAPRP  -0.529
24. RRIRCRPPRLPRPRPRPYCTPRP  -0.503
25. RRIRCRPPRLPRPRPRPWSKPRP  -0.498
26. RRIRDRPPRLPRPRPRPCPCPRP  -0.478
27. RRIRCRPPRLPRPRPRPVIQPRP  -0.468
28. RRIRCRPPRLPRPRPRPWCHPRP  -0.463
29. RRIRCRPPRLPRPRPRPVYRPRP  -0.445
30. RRIRCRPPRLPRPRPRPVWIPRP  -0.441
31. RRIRCRPPRLPRPRPRPYNVPRP  -0.434
32. RRIRCRPPRLPRPRPRPVLYPRP  -0.432
33. RRIRCRPPRLPRPRPRPVNSPRP  -0.418
34. RRIRCRPPRLPRPRPRPYVIPRP  -0.381
35. RRIRCRPPRLPRPRPRPYVWPRP  -0.369
36. RRIRDRPPRLPRPRPRPCYLPRP  -0.345
37. RRIRCRPPRLPRPRPRPYRRPRP  -0.344
38. RRIRCRPPRLPRPRPRPYQSPRP  -0.307
39. RRIRCRPPRLPRPRPRPYIQPRP  -0.3
40. RRIRDRPPRLPRPRPRPCYTPRP  -0.295
41. RRIRCRPPRLPRPRPRPVTFPRP  -0.294
42. RRIRCRPPRLPRPRPRPYATPRP  -0.294
43. RRIRCRPPRLPRPRPRPWCPPRP  -0.281
44. RRIRDRPPRLPRPRPRPDRHPRP  -0.278
45. RRIRCRPPRLPRPRPRPWIHPRP  -0.277
46. RRIRCRPPRLPRPRPRPWYFPRP  -0.264
47. RRIRDRPPRLPRPRPRPAYHPRP  -0.263
48. RRIRCRPPRLPRPRPRPVKMPRP  -0.248
49. RRIRCRPPRLPRPRPRPVVQPRP  -0.235
50. RRIRDRPPRLPRPRPRPCNIPRP  -0.228
51. RRIRCRPPRLPRPRPRPWVMPRP  -0.221
52. RRIRCRPPRLPRPRPRPYLGPRP  -0.213
53. RRIRCRPPRLPRPRPRPWLQPRP  -0.199
54. RRIRCRPPRLPRPRPRPWNLPRP  -0.19
55. RRIRDRPPRLPRPRPRPCHNPRP  -0.184
56. RRIRCRPPRLPRPRPRPWLCPRP  -0.182
57. RRIRCRPPRLPRPRPRPVKVPRP  -0.181
58. RRIRDRPPRLPRPRPRPAKRPRP  -0.161
59. RRIRCRPPRLPRPRPRPWGMPRP  -0.16
60. RRIRCRPPRLPRPRPRPWIFPRP  -0.159
61. RRIRCRPPRLPRPRPRPVVDPRP  -0.15
62. RRIRDRPPRLPRPRPRPATLPRP  -0.146
63. RRIRCRPPRLPRPRPRPWTVPRP  -0.145
64. RRIRDRPPRLPRPRPRPCKDPRP  -0.144
65. RRIRCRPPRLPRPRPRPVIEPRP  -0.141
66. RRIRDRPPRLPRPRPRPCFNPRP  -0.134
67. RRIRDRPPRLPRPRPRPCEHPRP  -0.133
68. RRIRCRPPRLPRPRPRPWRHPRP  -0.126
69. RRIRCRPPRLPRPRPRPYQLPRP  -0.119
70. RRIRCRPPRLPRPRPRPVLCPRP  -0.112
71. RRIRCRPPRLPRPRPRPVRIPRP  -0.108
72. RRIRDRPPRLPRPRPRPCFLPRP  -0.106
73. RRIRCRPPRLPRPRPRPWWWPRP  -0.1
74. RRIRDRPPRLPRPRPRPCFKPRP  -0.0968
75. RRIRDRPPRLPRPRPRPCDRPRP  -0.0944
76. RRIRDRPPRLPRPRPRPCTMPRP  -0.0909
77. RRIRCRPPRLPRPRPRPWEMPRP  -0.0816
78. RRIRDRPPRLPRPRPRPCMGPRP  -0.0733
79. RRIRDRPPRLPRPRPRPCHPPRP  -0.0697
80. RRIRDRPPRLPRPRPRPAQLPRP  -0.0667
81. RRIRDRPPRLPRPRPRPADFPRP  -0.0606
82. RRIRCRPPRLPRPRPRPWNGPRP  -0.0552
83. RRIRDRPPRLPRPRPRPCMQPRP  -0.0524
84. RRIRDRPPRLPRPRPRPAMEPRP  -0.0517
85. RRIRCRPPRLPRPRPRPYSDPRP  -0.0426
86. RRIRCRPPRLPRPRPRPWNWPRP  -0.0303
87. RRIRDRPPRLPRPRPRPDCCPRP  -0.0205
88. RRIRDRPPRLPRPRPRPCYHPRP  -0.019
89. RRIRDRPPRLPRPRPRPDPCPRP  -0.0187
90. RRIRDRPPRLPRPRPRPCQCPRP  -0.017
91. RRIRDRPPRLPRPRPRPDMCPRP  -0.0138
92. RRIRCRPPRLPRPRPRPYGLPRP  -0.0136
93. RRIRDRPPRLPRPRPRPDASPRP  -0.012
94. RRIRDRPPRLPRPRPRPDGIPRP  -0.0113
95. RRIRDRPPRLPRPRPRPDKAPRP  -0.00804
96. RRIRDRPPRLPRPRPRPCHLPRP  -0.00196
97. RRIRDRPPRLPRPRPRPDHCPRP  -0.00174
98. RRIRDRPPRLPRPRPRPAKDPRP  -0.0015
99. RRIRDRPPRLPRPRPRPCDMPRP  -0.0013
100. RRIRDRPPRLPRPRPRPADIPRP  -0.00114
101. RRIRDRPPRLPRPRPRPDLTPRP  0.00118
102. RRIRCRPPRLPRPRPRPWATPRP  0.00822
103. RRIRCRPPRLPRPRPRPWHWPRP  0.0135
104. RRIRDRPPRLPRPRPRPCGSPRP  0.0136
105. RRIRDRPPRLPRPRPRPCIKPRP  0.0183
106. RRIRCRPPRLPRPRPRPWCWPRP  0.0184
107. RRIRDRPPRLPRPRPRPANFPRP  0.0245
108. RRIRDRPPRLPRPRPRPAGLPRP  0.0252
109. RRIRDRPPRLPRPRPRPCQGPRP  0.028
110. RRIRCRPPRLPRPRPRPWDVPRP  0.0309
111. RRIRCRPPRLPRPRPRPVQLPRP  0.0365
112. RRIRDRPPRLPRPRPRPARSPRP  0.0403
113. RRIRCRPPRLPRPRPRPVPHPRP  0.0468
114. RRIRCRPPRLPRPRPRPWESPRP  0.0539
115. RRIRCRPPRLPRPRPRPWPKPRP  0.0772
116. RRIRCRPPRLPRPRPRPVPQPRP  0.0921
117. RRIRDRPPRLPRPRPRPAKAPRP  0.0972
118. RRIRDRPPRLPRPRPRPDLLPRP  0.106
119. RRIRCRPPRLPRPRPRPVHQPRP  0.11
120. RRIRCRPPRLPRPRPRPWAGPRP  0.124
121. RRIRCRPPRLPRPRPRPVHFPRP  0.128
122. RRIRCRPPRLPRPRPRPVTDPRP  0.133
123. RRIRDRPPRLPRPRPRPAPNPRP  0.138
124. RRIRCRPPRLPRPRPRPWRVPRP  0.149
125. RRIRDRPPRLPRPRPRPDFMPRP  0.161
126. RRIRDRPPRLPRPRPRPAPWPRP  0.226
127. RRIRCRPPRLPRPRPRPVRDPRP  0.238
128. RRIRCRPPRLPRPRPRPWELPRP  0.268
129. RRIRCRPPRLPRPRPRPVRVPRP  0.272
130. RRIRDRPPRLPRPRPRPATHPRP  0.335
131. RRIRDRPPRLPRPRPRPARHPRP  0.368
132. RRIRDRPPRLPRPRPRPASTPRP  0.397
133. RRIRCRPPRLPRPRPRPVRHPRP  0.403
134. RRIRCRPPRLPRPRPRPWRCPRP  0.486
135. RRIRDRPPRLPRPRPRPCCAPRP  0.58
136. RRIRDRPPRLPRPRPRPARRPRP  0.59
137. RRIRDRPPRLPRPRPRPDFWPRP  0.596
138. RRIRDRPPRLPRPRPRPAAVPRP  0.609
139. RRIRDRPPRLPRPRPRPCFWPRP  0.612
140. RRIRDRPPRLPRPRPRPAFMPRP  0.699
141. RRIRDRPPRLPRPRPRPCFEPRP  0.708
142. RRIRDRPPRLPRPRPRPAGCPRP  0.738
143. RRIRDRPPRLPRPRPRPDAWPRP  0.816
144. RRIRDRPPRLPRPRPRPCGAPRP  0.838
145. RRIRDRPPRLPRPRPRPAFAPRP  0.928
146. RRIRDRPPRLPRPRPRPARAPRP  0.928
147. RRIRDRPPRLPRPRPRPAQMPRP  1.2
148. RRIRDRPPRLPRPRPRPAAWPRP  1.56
149. RRIRDRPPRLPRPRPRPDCWPRP  1.65
150. RRIRCRPPRLPRPRPRPVNGPRP  1.74
